The target in the experiment is Hemagglutinin of A/Wisconsin/67/2005 (H3N2) overexpressed on 3T3 cells (Influenza A virus A/Wisconsin/67/2005 (H3N2)). Nature of the experiment: cell-based or functional assay.

B1: H1H14612N2 (antibody, V domains shown)
VH: EVQLVESGGGLVKPGGSLRLSCAASGFSFSGFSMNWVRQAPGKGLEWVSSISTSGNYMYYADSVKGRFTISRDNAKKSFSLQMNSLRAEDSAIYYCARGGGYNWNLFDYWGQGSLVTVSS
VL: EIVLTQSPGTLSLSPGERATLSCRASQSLNSNYLAWYQQKPGQAPRLLIYGASSRATGIPDRFSGSGSGADFTLTISRLESEDFAVYYCQQYGNSPLTFGGGTKVEIK
Regarding B1, the EC50, ADCC with human donor PBMCs (CytoTox-Glo) amounted to 0.176 nM and the EC50, FcγRIIIA activation in the ADCC-Glo reporter bioassay (Promega) amounted to 0.688 nM.

The values are drawn from patent US20210371505A1.
